Experimental data from article PMC6019379, “RecA-like domain 2 of DNA-dependent ATPase A domain, a SWI2/SNF2 protein, mediates conformational integrity and ATP hydrolysis” (Bioscience Reports, 2018).
Numbering of substitutions follows the chain as printed.

Tests used:
Test in all cases: intrinsic tryptophan fluorescence titration; no ATP; Fluorescence titration (ex 295 nm, em 340 nm), one-site saturation fit; buffer, salt, pH and temperature not given in the material. Wild-type ADAAD Kd values are cited from ref 24 and not listed
Conditions in all cases: protein: recombinant; tags: His (Ni-NTA, pET-14b); hairpin
ADAAD R592A = target: T1, ADAAD R592A (Bos taurus (bovine), UniProt Q9TTA5 221-940, R812A)
T1 sequence: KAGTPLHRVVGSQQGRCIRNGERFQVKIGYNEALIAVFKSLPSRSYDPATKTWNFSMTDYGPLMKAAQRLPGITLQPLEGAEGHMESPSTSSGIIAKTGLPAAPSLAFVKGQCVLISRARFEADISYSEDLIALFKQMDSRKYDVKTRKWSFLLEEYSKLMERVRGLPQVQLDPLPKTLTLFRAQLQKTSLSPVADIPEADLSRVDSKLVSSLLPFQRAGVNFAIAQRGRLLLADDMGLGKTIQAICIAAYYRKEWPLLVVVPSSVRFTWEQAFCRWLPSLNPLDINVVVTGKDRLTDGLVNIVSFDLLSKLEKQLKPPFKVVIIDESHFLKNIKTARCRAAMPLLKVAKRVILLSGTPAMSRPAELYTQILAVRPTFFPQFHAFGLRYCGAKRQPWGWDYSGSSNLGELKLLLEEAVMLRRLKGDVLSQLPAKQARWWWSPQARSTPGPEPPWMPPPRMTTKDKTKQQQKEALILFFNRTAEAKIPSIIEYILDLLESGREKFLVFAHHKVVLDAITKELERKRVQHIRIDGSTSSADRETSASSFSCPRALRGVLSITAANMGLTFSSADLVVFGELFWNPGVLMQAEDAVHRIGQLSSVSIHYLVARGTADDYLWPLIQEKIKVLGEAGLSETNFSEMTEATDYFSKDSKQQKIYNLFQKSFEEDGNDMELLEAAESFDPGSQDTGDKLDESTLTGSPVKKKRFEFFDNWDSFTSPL

ADAAD R595A = target: T2, ADAAD R595A (Bos taurus (bovine), UniProt Q9TTA5 221-940, R815A)
T2 sequence: T1 sequence with A592R, R595A

ADAAD H329D/D591H = target: T3, ADAAD H329D/D591H (Bos taurus (bovine), UniProt Q9TTA5 221-940, H549D;D811H)
T3 sequence: T1 sequence with H329D, D591H, A592R

B1: slDNA (stem-loop DNA) (structured_DNA)
DNA: GCGCAATTGCGCTCGACGATTTTTTAGCGCAATTGCGC
Kd (ADAAD R592A): 0.0315 ± 0.0013 µM | Kd (ADAAD R595A): 0.024 ± 0.0006 µM | Kd (ADAAD H329D/D591H): 0.0161 ± 0.0057 µM
